Data taken from patent US20220017589A1 (BEIJING QL BIOPHARMACEUTICAL, published 2022).

T1: human GFRAL (human, UniProt Q6UXV0 19-394)
T1 sequence (looked up): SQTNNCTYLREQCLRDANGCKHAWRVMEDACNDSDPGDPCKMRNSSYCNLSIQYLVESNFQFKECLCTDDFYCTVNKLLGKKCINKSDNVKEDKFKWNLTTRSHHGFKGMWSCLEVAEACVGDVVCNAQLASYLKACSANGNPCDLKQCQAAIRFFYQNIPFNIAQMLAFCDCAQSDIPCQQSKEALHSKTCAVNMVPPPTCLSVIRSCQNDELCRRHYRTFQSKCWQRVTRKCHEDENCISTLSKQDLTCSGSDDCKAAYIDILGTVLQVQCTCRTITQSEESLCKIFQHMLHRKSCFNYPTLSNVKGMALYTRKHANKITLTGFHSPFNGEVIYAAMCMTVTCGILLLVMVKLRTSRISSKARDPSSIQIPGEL


How the values were obtained:
human GFRAL = molecular target: T1, human GFRAL; assay: cell-based or functional assay
human GLP-1 receptor = human GLP-1 receptor (human, UniProt P43220 24-463); assay: cell-based or functional assay

Row | Binder | GDF15 activity (EC50, pM) (human GFRAL) | GLP-1 activity (EC50, pM) (human GLP-1 receptor)
1 | MLC026 (ligand, Moiety A (HOOC-(CH2)16-CO-gGlu-2XADO) on 55K of Linker (86K of fusion polypeptide)) HGEGTFTSDVSSYLEEQAAREFIAWLVRGGGGAQPGAQPGAQPGAQPGAQPGAQPGAQPGAQPGAQPGAQPGQEPGQEPGQEPGQKPGQEPGQEPGQEPGQEPGAQPGAQPARQGDHCPLGPGRCCRLHTVRASLEDLGWADWVLSPREVQVTMCIGACPSQFRAANLHAQIKTSLHRLRPDTVPAPCCVPASYNPMVLIQRTDTGVSLQTYDDLLARDCHCI | 56.1 pM | –
2 | MLC027 (ligand, Moiety A (HOOC-(CH2)16-CO-gGlu-2XADO) on 55K of Linker (86K of fusion polypeptide)) HGEGTFTSDVSSYLEEQAAREFIAWLVRGGGGAQPGAQPGAQPGAQPGAQPGAQPGAQPGAQPGQEPGAQPGQEPGAQPGQEPGQKPGQEPGQEPGQEPGQEPGAQPGAQPARQGDHCPLGPGRCCRLHTVRASLEDLGWADWVLSPREVQVTMCIGACPSQFRAANLHAQIKTSLHRLRPDTVPAPCCVPASYNPMVLIQRTDTGVSLQTYDDLLARDCHCI | 45.4 pM | –
3 | MLC006 (ligand, Moiety A (HOOC-(CH2)16-CO-gGlu-2XADO) on 36K of GLP-1 (30K of fusion polypeptide)) HGEGTFTSDVSSYLEEQAAREFIAWLVRGKGGQEPGQEPGQEPGQEPGQEPGQEPGQEPGQEPGAQPGAQPARQGDHCPLGPGRCCRLHTVRASLEDLGWADWVLSPREVQVTMCIGACPSQFRAANLHAQIKTSLHRLRPDTVPAPCCVPASYNPMVLIQRTDTGVSLQTYDDLLARDCHCI | 11.6 pM | 28.7 pM
4 | MLC008 (ligand, Moiety A (HOOC-(CH2)16-CO-gGlu-2XADO) on 6K of Linker (37K of fusion polypeptide)) HGEGTFTSDVSSYLEEQAAREFIAWLVRGGGGQEPGKEPGQEPGQEPGQEPGQEPGQEPGQEPGAQPGAQPARQGDHCPLGPGRCCRLHTVRASLEDLGWADWVLSPREVQVTMCIGACPSQFRAANLHAQIKTSLHRLRPDTVPAPCCVPASYNPMVLIQRTDTGVSLQTYDDLLARDCHCI | 15.3 pM | 4.3 pM
5 | MLC012 (ligand, Moiety A (HOOC-(CH2)16-CO-gGlu-2XADO) on 12K of Linker (43K of fusion polypeptide)) HGEGTFTSDVSSYLEEQAAREFIAWLVRGGGGQEPGQEPGQEKGQEPGQEPGQEPGQEPGQEPGQEPGQEPARQGDHCPLGPGRCCRLHTVRASLEDLGWADWVLSPREVQVTMCIGACPSQFRAANLHAQIKTSLHRLRPDTVPAPCCVPASYNPMVLIQRTDTGVSLQTYDDLLARDCHCI | 32.8 pM | 3.5 pM
6 | MLC003 (ligand) HGEGTFTSDVSSYLEEQAAKEFIAWLVRGGGGQEPGQEPGQEPGQEPGQEPGQEPGQEPGQEPGAQPGAQPARQGDHCPLGPGRCCRLHTVRASLEDLGWADWVLSPREVQVTMCIGACPSQFRAANLHAQIKTSLHRLRPDTVPAPCCVPASYNPMVLIQRTDTGVSLQTYDDLLARDCHCI | 55 pM | 7.8 pM
7 | MLC009 (ligand, Moiety A (HOOC-(CH2)16-CO-gGlu-2XADO) on 15K of Linker (46K of fusion polypeptide)) HGEGTFTSDVSSYLEEQAAREFIAWLVRGGGGQEPGQEPGQEPGQKPGQEPGQEPGQEPGQEPGAQPGAQPARQGDHCPLGPGRCCRLHTVRASLEDLGWADWVLSPREVQVTMCIGACPSQFRAANLHAQIKTSLHRLRPDTVPAPCCVPASYNPMVLIQRTDTGVSLQTYDDLLARDCHCI | 24.6 pM | 1.8 pM
8 | MLC043 (ligand, Moiety A (HOOC-(CH2)16-CO-gGlu-2XADO) on 26K of GLP-1 (20K of fusion polypeptide)) HGEGTFTSDVSSYLEEQAAKEFIAWLVRGGGGQEPGAQPGQEPGAQPGQEPGAQPGQEPGAQPGQEPGAQPGQEPGAQPGAQPGAQPGAQPARQGDHCPLGPGRCCRLHTVRASLEDLGWADWVLSPREVQVTMCIGACPSQFRAANLHAQIKTSLHRLRPDTVPAPCCVPASYNPMVLIQRTDTGVSLQTYDDLLARDCHCI | 39 pM | 1.8 pM
9 | MLC022 (ligand) HGEGTFTSDVSSYLEEQAAKEFIAWLVRGGGGQEPGQEPGQEPGQEPGQEPGQEPARQGDHCPLGPGRCCRLHTVRASLEDLGWADWVLSPREVQVTMCIGACPSQFRAANLHAQIKTSLHRLKPDTVPAPCCVPASYNPMVLIQKTDTGVSLQTYDDLLAKDCHCI | 59.2 pM | 6.7 pM

Further lines, results first:

Row | GDF15 activity (EC50, pM) (human GFRAL) | GLP-1 activity (EC50, pM) (human GLP-1 receptor) | Binder
10 | 62.8 pM | 4 pM | MLC023 (ligand) HGEGTFTSDVSSYLEEQAAKEFIAWLVRGGGGQEPGQEPGQEPARQGDHCPLGPGRCCRLHTVRASLEDLGWADWVLSPREVQVTMCIGACPSQFRAANLHAQIKTSLHRLKPDTVPAPCCVPASYNPMVLIQKTDTGVSLQTYDDLLAKDCHCI
11 | 67.3 pM | 5.7 pM | MLC021 (ligand) HGEGTFTSDVSSYLEEQAAKEFIAWLVRGGGGQEPGAQPGQEPGAQPGQEPGAQPGQEPGAQPGQEPGAQPGQEPGAQPGAQPGAQPGAQPGAQPGAQPGAQPGAQPGAQPARQGDHCPLGPGRCCRLHTVRASLEDLGWADWVLSPREVQVTMCIGACPSQFRAANLHAQIKTSLHRLKPDTVPAPCCVPASYNPMVLIQKTDTGVSLQTYDDLLAKDCHCI
12 | 48.8 pM | 6.9 pM | MLC013 (ligand, Moiety A (HOOC-(CH2)16-CO-gGlu-2XADO) on 1K of Linker (32K of fusion polypeptide)) HGEGTFTSDVSSYLEEQAAREFIAWLVRGGGKQEPGAQPGQEPGAQPGQEPGAQPGQEPGAQPGQEPGAQPGQEPGAQPGAQPGAQPGAQPGAQPGAQPGAQPGAQPGAQPARQGDHCPLGPGRCCRLHTVRASLEDLGWADWVLSPREVQVTMCIGACPSQFRAANLHAQIKTSLHRLRPDTVPAPCCVPASYNPMVLIQRTDTGVSLQTYDDLLARDCHCI
13 | > 5000 pM | 1.3 pM | MLC096 (ligand) HGEGTFTSDVSSYLEEQAAKEFIAWLVRGGGGQEPGAQPGQEPGAQPGQEPGAQPGQEPGAQPGQEPGAQPGQEPGAQPGAQPGAQPGAQPGAQPGAQPGAQPGAQPGAQPARQGDHCPLGPGRCCRLHTVRASLEDLGWADWVLSPREVQVTMCIGACPSQFRAANLHAQIKTSLHRLKPDTVPAPCCVPASYNPMRLIQKTDTGVSLQTYDDLLAKDCHCI
14 | 80.5 pM | 8 pM | MLC019 (ligand) HGEGTFTSDVSSYLEEQAAKEFIAWLVRGGGGQEPGAQPGQEPGAQPGQEPGAQPGQEPGAQPGQEPGAQPGQEPGAQPGAQPGAQPGAQPGAQPGAQPGAQPGAQPGAQPARQGDHCPLGPGRCCRLHTVRASLEDLGWADWVLSPREVQVTMCIGACPSQFRAANLHAQIKTSLHRLRPDTVPAPCCVPASYNPMVLIQRTDTGVSLQTYDDLLARDCHCI
15 | 9.5 pM | 5.9 pM | MLC007 (ligand, Moiety A (HOOC-(CH2)16-CO-gGlu-2XADO) on 1K of Linker (32K of fusion polypeptide)) HGEGTFTSDVSSYLEEQAAREFIAWLVRGGGKQEPGQEPGQEPGQEPGQEPGQEPGQEPGQEPGAQPGAQPARQGDHCPLGPGRCCRLHTVRASLEDLGWADWVLSPREVQVTMCIGACPSQFRAANLHAQIKTSLHRLRPDTVPAPCCVPASYNPMVLIQRTDTGVSLQTYDDLLARDCHCI
16 | 55.9 pM | – | MLC020 (ligand) HGEGTFTSDVSSYLEEQAAKEFIAWLVRGGGGQEPGQEPGQEPGQEPGQEPGQEPGQEPGQEPGAQPGAQPARQGDHCPLGPGRCCRLHTVRASLEDLGWADWVLSPREVQVTMCIGACPSQFRAANLHAQIKTSLHRLKPDTVPAPCCVPASYNPMVLIQKTDTGVSLQTYDDLLAKDCHCI
17 | 17.9 pM | 13.1 pM | MLC002 (ligand, Moiety A (HOOC-(CH2)16-CO-gGlu-2XADO) on 26K of GLP-1 (20K of fusion polypeptide)) HGEGTFTSDVSSYLEEQAAKEFIAWLVRGGGGQEPGQEPGQEPGQEPGQEPGQEPGQEPGQEPGAQPGAQPARQGDHCPLGPGRCCRLHTVRASLEDLGWADWVLSPREVQVTMCIGACPSQFRAANLHAQIKTSLHRLRPDTVPAPCCVPASYNPMVLIQRTDTGVSLQTYDDLLARDCHCI
18 | 29.9 pM | 3.1 pM | MLC100 (ligand) HGEGTFTSDVSSYLEEQAAKEFIAWLVRGGGGQEPARQGDHCPLGPGRCCRLHTVRASLEDLGWADWVLSPREVQVTMCIGACPSQFRAANLHAQIKTSLHRLKPDTVPAPCCVPASYNPMVLIQKTDTGVSLQTYDDLLAKDCHCI
19 | 29 pM | 2.5 pM | MLC102 (ligand) HGEGTFTSDVSSYLEEQAAKEFIAWLVRGGGGQEPGAQPGQEPGAQPGQEPGAQPGQEPGAQPGQEPGAQPGQEPGAQPGAQPGAQPGAQPGAQPGAQPGAQPGAQPGAQPGAQPGAQPGAQPGAQPGAQPGAQPGAQPGAQPGAQPGAQPARQGDHCPLGPGRCCRLHTVRASLEDLGWADWVLSPREVQVTMCIGACPSQFRAANLHAQIKTSLHRLKPDTVPAPCCVPASYNPMVLIQKTDTGVSLQTYDDLLAKDCHCI
20 | 27.5 pM | 2.5 pM | MLC124 (ligand) HGEGTFTSDVSSYLEEQAAKEFIAWLVRGGGGQEPGAQPGQEPGAQPGQEPGAQPGQEPGAQPGQEPGAQPGQEPGAQPGAQPGAQPGAQPARQGDHCPLGPGRCCRLHTVRASLEDLGWADWVLSPREVQVTMCIGACPSQFRAANLHAQIKTSLHRLRPDTVPAPCCVPASYNPMVLIQRTDTGVSLQTYDDLLARDCHCI
21 | 32.9 pM | > 900 pM | MLC097 (ligand) EGTFTSDVSSYLEEQAAKEFIAWLVRGGGGQEPGAQPGQEPGAQPGQEPGAQPGQEPGAQPGQEPGAQPGQEPGAQPGAQPGAQPGAQPGAQPGAQPGAQPGAQPGAQPARQGDHCPLGPGRCCRLHTVRASLEDLGWADWVLSPREVQVTMCIGACPSQFRAANLHAQIKTSLHRLKPDTVPAPCCVPASYNPMVLIQKTDTGVSLQTYDDLLAKDCHCI
